Source: the array DNA melting data of Ke et al.

Assay: melting temperature; melt of duplexes
Conditions: sodium 0.0675 M; strand 1 µM

CGACGTGCATAATGTGCTG+CAGCACATAAAGCACGTCG ((((((((.(.((((((((+)))))))).).))))))))
Tm: 50.2 °C

CGACGTGCCGTATGTGCTG+CAGCACATGAGGCACGTCG (((((((((..((((((((+))))))))..)))))))))
Tm: 58.7 °C

CGACGTGCAGCATGTGCTG+CAGCACATAGTGCACGTCG (((((((((..((((((((+))))))))..)))))))))
Tm: 44.4 °C

CGACGTGCCTTATGTGCTG+CAGCACATAAGGCACGTCG (((((((((((((((((((+)))))))))))))))))))
Tm: 62.9 °C

CGACGTGCTCAATGTGCTG+CAGCACATTGAGCACGTCG (((((((((((((((((((+)))))))))))))))))))
Tm: 64.2 °C

CGACGTGCGGCATGTGCTG+CAGCACATGTTGCACGTCG ((((((((..(((((((((+)))))))))..))))))))
Tm: 57.6 °C

CGACGTGCTACATGTGCTG+CAGCACATCAAGCACGTCG (((((((((..((((((((+))))))))..)))))))))
Tm: 50.6 °C

CGACGTGCAGTATGTGCTG+CAGCACATTCGGCACGTCG ((((((((.(.((((((((+)))))))).).))))))))
Tm: 53.1 °C

CGACGTGCACGATGTGCTG+CAGCACATTTGGCACGTCG ((((((((...((((((((+))))))))...))))))))
Tm: 46.8 °C

CGACGTGCTGGATGTGCTG+CAGCACATTACGCACGTCG ((((((((...((((((((+))))))))...))))))))
Tm: 51.1 °C

CGACGTGCTAGATGTGCTG+CAGCACATCAGGCACGTCG ((((((((..(((((((((+)))))))))..))))))))
Tm: 56.2 °C

CGACGTGCAGAATGTGCTG+CAGCACATGTAGCACGTCG ((((((((...((((((((+))))))))...))))))))
Tm: 53.4 °C

CGACGTGCACAATGTGCTG+CAGCACATGACGCACGTCG ((((((((...((((((((+))))))))...))))))))
Tm: 48.2 °C

CGACGTGCGCCATGTGCTG+CAGCACATGTGGCACGTCG ((((((((..(((((((((+)))))))))..))))))))
Tm: 54.1 °C

CGACGTGCTTGATGTGCTG+CAGCACATTCCGCACGTCG ((((((((...((((((((+))))))))...))))))))
Tm: 48.5 °C

CGACGTGCAGAATGTGCTG+CAGCACATTGGGCACGTCG ((((((((..(((((((((+)))))))))..))))))))
Tm: 53.8 °C

CGACGTGCATCATGTGCTG+CAGCACATTGAGCACGTCG ((((((((...((((((((+))))))))...))))))))
Tm: 50.2 °C

CGACGTGCGCGATGTGCTG+CAGCACATTCTGCACGTCG ((((((((...((((((((+))))))))...))))))))
Tm: 50.4 °C

CGACGTGCAAGATGTGCTG+CAGCACATGATGCACGTCG (((((((((..((((((((+))))))))..)))))))))
Tm: 52.3 °C

CGACGTGCAATATGTGCTG+CAGCACATCGTGCACGTCG (((((((((..((((((((+))))))))..)))))))))
Tm: 45.9 °C

CGACGTGCCACATGTGCTG+CAGCACATACAGCACGTCG ((((((((...((((((((+))))))))...))))))))
Tm: 48.6 °C

CGACGTGCTTTATGTGCTG+CAGCACATAGCGCACGTCG ((((((((..(((((((((+)))))))))..))))))))
Tm: 47.9 °C

CGACGTGCGTTATGTGCTG+CAGCACATAGCGCACGTCG (((((((((.(((((((((+))))))))).)))))))))
Tm: 58.3 °C

CGACGTGCCTCATGTGCTG+CAGCACATGACGCACGTCG ((((((((.((((((((((+)))))))))).))))))))
Tm: 52.7 °C

CGACGTGCCAGATGTGCTG+CAGCACATTGCGCACGTCG ((((((((...((((((((+))))))))...))))))))
Tm: 51.2 °C

CGACGTGCAGGATGTGCTG+CAGCACATTCAGCACGTCG ((((((((.(.((((((((+)))))))).).))))))))
Tm: 54.1 °C

CGACGTGCGTGATGTGCTG+CAGCACATGCTGCACGTCG ((((((((...((((((((+))))))))...))))))))
Tm: 49.8 °C

CGACGTGCGTAATGTGCTG+CAGCACATACTGCACGTCG ((((((((...((((((((+))))))))...))))))))
Tm: 52.4 °C
